# Assay results as given in the supplement of paper PMC12764529.
# ± gives the half width of the 95% confidence interval.
# What was measured:
# [1] = folding stability dG unfold from chymotrypsin proteolysis; higher = more stable
# Protocol: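 Folding stability of de novo designed mini-proteins (<80 aa, no Cys; designed by TrROS, TrMRF, ProteinMPNN and the joint model) was measured by cDNA display proteolysis with trypsin and chymotrypsin. Each protease was used at 11 concentrations in a threefold dilution series plus a no-protease condition. K50 was inferred by Bayesian fitting of sequencing counts, and dG unfold was derived against a sequence-predicted unfolded-state K50 (Tsuboyama et al. method). Sequences shown include variable-length N-terminal GS-type padding (SAGGSAGG...) inside a display construct carrying a PA tag. Rows were kept only if the AF2 dimer inter-PAE was >15, to exclude likely homo-oligomers.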
# [2] = folding stability dG unfold (combined trypsin and chymotrypsin); higher = more stable
# Outline: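 Only designs with AlphaFold2 dimer inter-PAE above 15 were retained; each was a mini-protein under 80 residues with no cysteine, in a PA-tagged cDNA display construct. After digestion with trypsin and chymotrypsin and sequencing, K50 was inferred by Bayesian fitting of counts, and unfolding free energy was derived per protease or combined against a sequence-predicted unfolded-state K50 and a shared folded-state K50.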
Sequence,folding stability dG unfold [1] [kcal/mol],folding stability dG unfold [2] [kcal/mol]
SAGGSADNENNENQKPKPKPKKKLEVTIPVPLPPGDSLEEAMEQAYNIANHLAQSGKLDEVEISIFSAGGSA [r15_450_TrROS],-0.241 ± 0.4,< -1
SAGGGMSPVGTTTSTSPSGVVTTTTTLEAPPPVVTTTTTTTTPVPPPLPPRPPYGPENRARALARAASAGGS [r16_6_JUSTAS],-0.146 ± 0.39,< -1
SAGGSAGGSAGMTLVKTYERFPETGTVVERLSAREPDGPTVPLEVTKVRPVAGEEPVPLLSAGGSAGGSAGG [r11_750_JUSTAS],-0.665 ± 0.23,< -1
SAGGSAGGLKPGDTVTLPIEIWIMHMETKKDPNGDPEPRMEPYPYRIPITIPADDLNDGKITLTSAGGSAGG [r6_138_TrROS],0.0398 ± 0.46,< -1
SAGMSTTTTAEIKAAVEAAAGEGLNVAPPTVTATDGTPISDDTVIEPGAPVPVTVDVPIDPVPPPELRSAGG [r19_278_JUSTAS],0.336 ± 0.09,-0.0815 ± 0.28
SAGGSAGGSAGGGATVTETRTEFVPPTGIVRVESVVTYPDGSTRRTSSVVVVERPGAQPSAGGSAGGSAGGS [r10_290_JUSTAS],0.872 ± 0.03,0.386 ± 0.13
SAGMPLPVKLVSFEPGANTLTIDRPYTNGPVTLSPDGTLTITGTLRDENGKPLETFTETIPVNWPEGTRSAG [r5_475_JUSTAS],-0.24 ± 0.14,-0.568 ± 0.17
SAGGKLKEAFEKNGYKAYVHPDSPVVTVEFYKPVKLENGEWKPKKLGTKTIEVDGVDLEKAYEILLKESAGG [r13_924_TrMRF],0.935 ± 0.29,0.402 ± 0.2
SAGNMTNEQLQERIKEAVREDGWPTYRIKMSGPDGKNMNFQVDFPEERRQKIQKELGWDITEVEPRRYSAGG [r19_50_TrROS],-0.107 ± 0.38,-0.578 ± 0.3
SAGGMKIIKELYDKLPPEVKYFSVPFHYPTGKVEPVKPSPTLSMFEPFNPETGEVDRFVVYRDKIEPLSAGG [r13_803_TrMRF],0.0804 ± 0.18,-0.229 ± 0.24
SAGGSGDSMLVPVSESTSSYPPSGIVRSTKTILDPKKGGIITETTTTTLTPDGNPLSTTPSTTVKESAGGSA [r2_253_JUSTAS],0.344 ± 0.032,-0.244 ± 0.23
SAGGSAGGSAKKLKIPNPDGKTYEMKVEDVDPENNNVMIRNPGNGEPFHFKKSDAKRIAEELSAGGSAGGSA [r18_161_TrROS],-0.626 ± 0.44,< -1
SAGGSAGGSAGEVLIVAPAALLKEAIGPGVEVLAVDDDVVVVRVPVPPVPLTDANGNPLPSAGGSAGGSAGG [r11_828_TrMRF],0.598 ± 0.047,-0.15 ± 0.3
SAGGSAGGSAGGPIVLKFKTKEEAEEFAKKLKKEIPNIKEVKIEEDPETGEYYLVVVNDSAGGSAGGSAGGS [r10_544_TrMRF],4.86 ± 0.17,5 ± 0.28
SAGGSAGGSSEVIEKLLELNPDVEVVSVTPTPNGVTVTVATKEGGEETVSSAELEKLGVKIRLSAGGSAGGS [r12_3_JUSTAS],0.282 ± 0.1,0.1 ± 0.28
SAGGSAGGSAGGSMLTVRSSSTTPLPDGSTVTTYEVNDKPYLVRVDPNGPVVTVKPLSLLSAGGSAGGSAGG [r7_772_JUSTAS],-0.367 ± 0.4,-0.473 ± 0.29
SAGGATTERTFTFPSSVSPEEAAAAVAAEAPPGLRVDVAPVATRADPSGVTTTTLRARFTDPAAPAAASAGG [r13_12_JUSTAS],0.297 ± 0.12,< -1
SAGGSAGGSAGGPFFMPEQKGTIPADELQKKGGNLTSVEIKVRPWMMELEIEIVYPPGDKSAGGSAGGSAGG [r7_116_TrROS],1.14 ± 0.36,0.0937 ± 0.51
SAVTFPVPVTVTVPDADGGPPAVTVPVAVPVDPDAVRDAAIERLRRELAEAGRPDVTEEDLARPEFLAARSA [r9_263_TrMRF],0.622 ± 0.16,-0.335 ± 0.23
SAGGSAGGSMTIVNPGTPETLAATVKETIKAGKKVKVIYVSPDNPEPVAEAEVEGTAEELEKESAGGSAGGS [r12_241_TrMRF],0.193 ± 0.11,-0.49 ± 0.29
SAGGIKVKITDEDGEEKTFKVKDINVNKSPNNGMPSLKIKLANGRPWVIMIPPGRPLEPGDEITVRPLSAGG [r13_390_TrROS],-0.371 ± 0.93,-0.452 ± 0.63
SAGGSAGGSAMTVYVPIEEVGPDENGEYDDELIRERVREEYPDEPVEEVLVEGPEEAERVARSAGGSAGGSA [r18_72_JUSTAS],-0.134 ± 0.061,-0.384 ± 0.23
SAGGSAGGSMKEGTFNSEEEVEELKKKYPNVEVYEDPETNTIHVKIKEESEKEYEEENIKKLKSAGGSAGGS [r20_191_JUSTAS],-0.897 ± 0.6,< -1
SAMLTLPVESTDPARVEAAIAEARALAAQGARVEVPVRTPEGPLRFLVDPATGRVVRTDPATGATEVLPSAG [r14_423_JUSTAS],0.161 ± 0.17,-0.244 ± 0.13
